According to publication PMC2213055 (The Journal of Experimental Medicine, 2005):

How the values were obtained:
MSH2–MSH6 heterodimer = MSH2–MSH6 heterodimer (human, UniProt P43246 1-934; P52701 1-1360); assay: ELISA
MSH2–MSH3 heterodimer = MSH2–MSH3 heterodimer (human, UniProt P43246 1-934; P20585 1-1137); assay: ELISA
Chain of MSH2–MSH3 heterodimer (P43246 whole entry, chain 1 of 2): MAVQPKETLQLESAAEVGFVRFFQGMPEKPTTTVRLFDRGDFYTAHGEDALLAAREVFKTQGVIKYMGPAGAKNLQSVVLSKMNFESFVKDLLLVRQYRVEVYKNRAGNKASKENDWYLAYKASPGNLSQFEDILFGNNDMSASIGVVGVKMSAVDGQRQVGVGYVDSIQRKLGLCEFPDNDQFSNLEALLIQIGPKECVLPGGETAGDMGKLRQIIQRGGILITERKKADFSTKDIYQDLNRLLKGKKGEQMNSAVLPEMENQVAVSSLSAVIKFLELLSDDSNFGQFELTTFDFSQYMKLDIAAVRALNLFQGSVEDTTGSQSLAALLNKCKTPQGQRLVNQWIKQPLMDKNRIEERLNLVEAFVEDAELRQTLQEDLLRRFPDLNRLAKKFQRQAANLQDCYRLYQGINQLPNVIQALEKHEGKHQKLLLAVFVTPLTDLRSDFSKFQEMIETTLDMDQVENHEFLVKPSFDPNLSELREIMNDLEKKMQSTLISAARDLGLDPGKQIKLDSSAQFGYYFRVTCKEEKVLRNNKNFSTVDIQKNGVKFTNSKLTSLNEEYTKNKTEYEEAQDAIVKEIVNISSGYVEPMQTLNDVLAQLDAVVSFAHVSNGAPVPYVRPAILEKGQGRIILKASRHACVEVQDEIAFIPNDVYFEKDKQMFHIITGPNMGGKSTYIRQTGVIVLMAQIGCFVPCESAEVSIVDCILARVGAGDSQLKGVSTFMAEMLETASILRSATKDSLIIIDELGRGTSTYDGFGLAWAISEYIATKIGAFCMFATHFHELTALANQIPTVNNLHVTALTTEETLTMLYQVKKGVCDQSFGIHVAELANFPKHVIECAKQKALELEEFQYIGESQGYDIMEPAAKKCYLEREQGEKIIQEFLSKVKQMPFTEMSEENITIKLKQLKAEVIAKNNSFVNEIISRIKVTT
Chain of MSH2–MSH3 heterodimer (P20585 whole entry, chain 2 of 2): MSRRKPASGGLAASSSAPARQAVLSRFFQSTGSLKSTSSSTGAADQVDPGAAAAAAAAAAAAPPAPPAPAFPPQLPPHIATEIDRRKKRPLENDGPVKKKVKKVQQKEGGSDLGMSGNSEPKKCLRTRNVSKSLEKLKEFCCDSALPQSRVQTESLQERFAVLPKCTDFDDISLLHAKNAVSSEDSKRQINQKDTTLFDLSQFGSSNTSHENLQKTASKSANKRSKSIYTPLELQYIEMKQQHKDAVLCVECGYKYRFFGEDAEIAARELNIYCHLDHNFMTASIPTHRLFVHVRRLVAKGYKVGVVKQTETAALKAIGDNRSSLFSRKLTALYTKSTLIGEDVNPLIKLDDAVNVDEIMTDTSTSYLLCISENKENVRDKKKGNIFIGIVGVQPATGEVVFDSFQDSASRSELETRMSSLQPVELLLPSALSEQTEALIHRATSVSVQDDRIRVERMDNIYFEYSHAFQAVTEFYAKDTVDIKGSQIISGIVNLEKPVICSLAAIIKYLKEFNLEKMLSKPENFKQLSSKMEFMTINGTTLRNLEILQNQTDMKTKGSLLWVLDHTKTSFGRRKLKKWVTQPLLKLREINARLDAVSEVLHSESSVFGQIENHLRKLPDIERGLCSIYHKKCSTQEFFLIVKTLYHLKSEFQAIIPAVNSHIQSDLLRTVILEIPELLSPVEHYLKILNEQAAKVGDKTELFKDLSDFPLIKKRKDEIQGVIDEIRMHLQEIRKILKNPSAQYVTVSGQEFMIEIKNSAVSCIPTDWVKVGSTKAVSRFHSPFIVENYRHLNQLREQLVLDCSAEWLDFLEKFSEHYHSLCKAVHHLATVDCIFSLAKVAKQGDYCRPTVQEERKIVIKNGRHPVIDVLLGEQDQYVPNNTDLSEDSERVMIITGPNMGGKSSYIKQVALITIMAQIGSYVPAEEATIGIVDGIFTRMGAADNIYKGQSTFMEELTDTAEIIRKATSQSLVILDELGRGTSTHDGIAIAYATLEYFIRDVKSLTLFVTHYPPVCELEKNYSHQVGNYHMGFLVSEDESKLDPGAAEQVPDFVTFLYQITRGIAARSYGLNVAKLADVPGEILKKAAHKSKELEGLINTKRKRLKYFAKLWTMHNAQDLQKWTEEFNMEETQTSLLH

Chain of MSH2–MSH6 heterodimer (P43246 whole entry, chain 1 of 2): as the sequence (P43246 whole entry, chain 1 of 2) above
Chain of MSH2–MSH6 heterodimer (P52701 whole entry, chain 2 of 2): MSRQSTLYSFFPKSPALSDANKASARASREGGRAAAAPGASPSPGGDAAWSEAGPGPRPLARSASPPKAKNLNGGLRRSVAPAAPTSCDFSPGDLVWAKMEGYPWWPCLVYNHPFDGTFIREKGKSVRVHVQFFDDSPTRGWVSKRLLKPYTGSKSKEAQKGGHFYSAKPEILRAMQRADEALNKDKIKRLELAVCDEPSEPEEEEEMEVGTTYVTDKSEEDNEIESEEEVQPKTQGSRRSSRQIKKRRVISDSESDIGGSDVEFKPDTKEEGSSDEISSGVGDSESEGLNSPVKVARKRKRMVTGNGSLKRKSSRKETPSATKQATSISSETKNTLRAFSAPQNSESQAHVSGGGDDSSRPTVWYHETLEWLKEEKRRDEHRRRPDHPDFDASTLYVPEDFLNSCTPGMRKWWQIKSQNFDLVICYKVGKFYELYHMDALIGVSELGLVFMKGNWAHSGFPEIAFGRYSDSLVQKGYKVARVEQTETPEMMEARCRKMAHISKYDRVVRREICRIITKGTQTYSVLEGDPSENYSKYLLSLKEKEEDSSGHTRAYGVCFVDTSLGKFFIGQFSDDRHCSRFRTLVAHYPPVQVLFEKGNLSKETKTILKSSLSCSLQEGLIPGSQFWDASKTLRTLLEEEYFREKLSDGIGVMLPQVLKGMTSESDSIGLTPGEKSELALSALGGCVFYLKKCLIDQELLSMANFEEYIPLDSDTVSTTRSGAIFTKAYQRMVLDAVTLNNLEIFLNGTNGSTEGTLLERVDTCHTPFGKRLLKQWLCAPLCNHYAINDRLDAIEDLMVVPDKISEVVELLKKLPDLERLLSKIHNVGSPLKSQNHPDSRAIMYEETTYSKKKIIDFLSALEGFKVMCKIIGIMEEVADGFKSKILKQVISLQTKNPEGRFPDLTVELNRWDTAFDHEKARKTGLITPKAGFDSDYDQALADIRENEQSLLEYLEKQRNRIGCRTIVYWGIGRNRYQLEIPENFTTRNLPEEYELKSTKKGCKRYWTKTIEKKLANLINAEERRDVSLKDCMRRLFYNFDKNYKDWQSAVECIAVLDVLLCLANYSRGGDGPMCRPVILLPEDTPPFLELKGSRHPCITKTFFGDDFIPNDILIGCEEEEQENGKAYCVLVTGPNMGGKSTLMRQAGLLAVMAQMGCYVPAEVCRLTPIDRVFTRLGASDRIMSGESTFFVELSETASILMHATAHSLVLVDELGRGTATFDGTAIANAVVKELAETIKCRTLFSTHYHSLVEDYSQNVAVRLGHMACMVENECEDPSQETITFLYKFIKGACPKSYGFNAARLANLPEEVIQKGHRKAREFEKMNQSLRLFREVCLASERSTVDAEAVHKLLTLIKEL

B1: recombinant human DNA polymerase η, (His)6-tagged (enzyme, UniProt Q9Y253 1-713, looked up)
chain: MATGQDRVVALVDMDCFFVQVEQRQNPHLRNKPCAVVQYKSWKGGGIIAVSYEARAFGVTRSMWADDAKKLCPDLLLAQVRESRGKANLTKYREASVEVMEIMSRFAVIERASIDEAYVDLTSAVQERLQKLQGQPISADLLPSTYIEGLPQGPTTAEETVQKEGMRKQGLFQWLDSLQIDNLTSPDLQLTVGAVIVEEMRAAIERETGFQCSAGISHNKVLAKLACGLNKPNRQTLVSHGSVPQLFSQMPIRKIRSLGGKLGASVIEILGIEYMGELTQFTESQLQSHFGEKNGSWLYAMCRGIEHDPVKPRQLPKTIGCSKNFPGKTALATREQVQWWLLQLAQELEERLTKDRNDNDRVATQLVVSIRVQGDKRLSSLRRCCALTRYDAHKMSHDAFTVIKNCNTSGIQTEWSPPLTMLFLCATKFSASAPSSSTDITSFLSSDPSSLPKVPVTSSEAKTQGSGPAVTATKKATTSLESFFQKAAERQKVKEASLSSLTAPTQAPMSNSPSKPSLPFQTSQSTGTEPFFKQKSLLLKQKQLNNSSVSSPQQNPWSNCKALPNSLPTEYPGCVPVCEGVSKLEESSKATPAEMDLAHNSQSMHASSASKSVLEVTQKATPNPSLLAAEDQVPCEKCGSLVPVWDMPEHMDYHFALELQKSFLQPHSSNPQVVSAVSHQGKRNPKSPLACTNKRPRPEGMQTLESFFKPLTH
How did the Kd (MSH2–MSH6 heterodimer) turn out when B1 was run?
Its Kd is 6.5 ± 0.8 nM.

And the Kd (MSH2–MSH3 heterodimer)?
The Kd was 7.4 ± 1 nM.
